Key:
[1] = molecular target: T1, cynomolgus monkey FcγRIIa2 extracellular domain, His-tagged (cynomolgus monkey); experiment: SPR Biacore, KD(SG1)/KD(variant)
T1 construct: also called cyno FcγRIIa2; cynoFcgRIIa2; not shown: C-terminal His-tag
T1 chain: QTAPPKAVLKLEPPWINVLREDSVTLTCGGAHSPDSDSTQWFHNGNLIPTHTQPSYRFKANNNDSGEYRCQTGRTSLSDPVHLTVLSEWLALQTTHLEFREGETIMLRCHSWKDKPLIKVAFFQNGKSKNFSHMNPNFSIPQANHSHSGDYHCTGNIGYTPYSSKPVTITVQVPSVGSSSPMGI

[2] = molecular target: T2, cynomolgus monkey FcγRIIa1 extracellular domain, His-tagged (cynomolgus monkey); experiment: SPR Biacore, antibody captured, FcgR analyte
T2 construct: also called cyno FcγRIIa1; cynoFcgRIIa1; not shown: C-terminal His-tag
T2 chain: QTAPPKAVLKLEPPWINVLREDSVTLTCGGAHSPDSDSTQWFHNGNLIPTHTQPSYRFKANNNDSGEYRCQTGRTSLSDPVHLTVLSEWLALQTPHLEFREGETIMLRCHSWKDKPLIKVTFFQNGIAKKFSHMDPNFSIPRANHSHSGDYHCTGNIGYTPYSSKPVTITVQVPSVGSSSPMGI

[3] = molecular target: T3, cynomolgus monkey FcγRIIa3 extracellular domain with C-terminal His-tag (cynomolgus monkey); experiment: SPR (BIACORE); KD of SG1 / KD of variant
T3 construct: also called cyno FcgRIIa3; cynoFcγRIIa3; not shown: His-tag added to the C-terminus
T3 chain: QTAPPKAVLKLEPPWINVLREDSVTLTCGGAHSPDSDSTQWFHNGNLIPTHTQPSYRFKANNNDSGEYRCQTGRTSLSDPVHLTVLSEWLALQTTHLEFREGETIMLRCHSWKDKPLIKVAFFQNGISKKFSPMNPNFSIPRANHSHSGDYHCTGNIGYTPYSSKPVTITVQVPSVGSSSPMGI

[4] = molecular target: T4, cynomolgus monkey FcγRIIIaS extracellular domain with C-terminal His-tag (cynomolgus monkey, UniProt A3RFZ7 21-206 (rhesus entry)); experiment: SPR (BIACORE); KD of SG1 / KD of variant
T4 construct: also called cyno FcgRIIIaS; cynoFcγRIIIaS; not shown: His-tag added to the C-terminus

[5] = molecular target: T5, human FcγRIIaH extracellular domain with C-terminal His-tag (human, UniProt P12318 34-217); experiment: SPR (BIACORE); KD of SG1 / KD of variant
T5 construct: also called human FcgRIIaH; FcγRIIa type H; not shown: His-tag added to the C-terminus
T5 sequence: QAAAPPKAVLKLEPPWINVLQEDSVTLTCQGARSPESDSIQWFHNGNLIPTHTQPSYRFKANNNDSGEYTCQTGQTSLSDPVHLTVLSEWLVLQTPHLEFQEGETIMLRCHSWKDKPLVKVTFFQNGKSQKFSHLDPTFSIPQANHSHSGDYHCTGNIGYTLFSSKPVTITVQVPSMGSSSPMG

[6] = molecular target: T6, cynomolgus monkey FcγRIIa1 extracellular domain with C-terminal His-tag (cynomolgus monkey); experiment: SPR (BIACORE), antibody captured, FcgR analyte
T6 construct: also called cyno FcgRIIa1; cynoFcγRIIa1; not shown: His-tag added to the C-terminus
T6 chain: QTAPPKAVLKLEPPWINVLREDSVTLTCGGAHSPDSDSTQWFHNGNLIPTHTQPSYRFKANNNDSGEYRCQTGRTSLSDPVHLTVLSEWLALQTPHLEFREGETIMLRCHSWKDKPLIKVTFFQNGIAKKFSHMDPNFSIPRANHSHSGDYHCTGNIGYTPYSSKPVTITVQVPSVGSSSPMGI

[7] = molecular target: T4, cynomolgus monkey FcγRIIIaS …; experiment: SPR (BIACORE), antibody captured, FcgR analyte
[8] = molecular target: T5, human FcγRIIaH extracellular domain …; experiment: SPR (BIACORE), antibody captured, FcgR analyte
[9] = molecular target: T7, cynomolgus monkey FcγRIIb extracellular domain, His-tagged (cynomolgus monkey); experiment: SPR Biacore, KD(SG1)/KD(variant)
T7 construct: also called cyno FcγRIIb; cynoFcγRIIb; not shown: C-terminal His-tag
T7 chain: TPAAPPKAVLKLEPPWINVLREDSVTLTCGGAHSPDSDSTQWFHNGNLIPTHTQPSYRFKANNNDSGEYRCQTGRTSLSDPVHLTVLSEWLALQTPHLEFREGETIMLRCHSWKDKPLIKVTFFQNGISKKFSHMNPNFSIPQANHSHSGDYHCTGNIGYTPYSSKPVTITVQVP

[10] = molecular target: T8, human FcγRIIaR extracellular domain, His-tagged (human, UniProt P12318 34-217); experiment: SPR Biacore, KD(SG1)/KD(variant)
T8 construct: also called human FcγRIIa (type R); FcgRIIaR; not shown: C-terminal His-tag
T8 chain: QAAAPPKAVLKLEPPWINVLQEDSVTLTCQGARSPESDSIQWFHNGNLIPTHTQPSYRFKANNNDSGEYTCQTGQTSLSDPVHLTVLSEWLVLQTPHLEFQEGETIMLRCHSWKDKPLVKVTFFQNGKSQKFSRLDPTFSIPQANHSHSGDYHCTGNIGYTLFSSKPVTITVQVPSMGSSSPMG

[11] = molecular target: T1, cynomolgus monkey FcγRIIa2 …; experiment: SPR Biacore, antibody captured, FcgR analyte
[12] = molecular target: T2, cynomolgus monkey FcγRIIa1 …; experiment: SPR Biacore, KD(SG1)/KD(variant)
[13] = molecular target: T9, cynomolgus monkey FcγRIIa3 extracellular domain, His-tagged (cynomolgus monkey); experiment: SPR Biacore, KD(SG1)/KD(variant)
T9 construct: also called cyno FcγRIIa3; cynoFcgRIIa3; not shown: C-terminal His-tag
T9 chain: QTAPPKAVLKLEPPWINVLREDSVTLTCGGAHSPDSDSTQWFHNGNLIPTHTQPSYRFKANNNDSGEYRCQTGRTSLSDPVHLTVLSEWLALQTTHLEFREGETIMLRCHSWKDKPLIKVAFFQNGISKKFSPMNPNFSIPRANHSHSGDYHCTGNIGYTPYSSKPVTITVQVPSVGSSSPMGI

[14] = molecular target: T6, cynomolgus monkey FcγRIIa1 …; experiment: SPR (BIACORE); KD of SG1 / KD of variant
[15] = molecular target: T3, cynomolgus monkey FcγRIIa3 …; experiment: SPR (BIACORE), antibody captured, FcgR analyte

T4 sequence (A3RFZ7 21-206): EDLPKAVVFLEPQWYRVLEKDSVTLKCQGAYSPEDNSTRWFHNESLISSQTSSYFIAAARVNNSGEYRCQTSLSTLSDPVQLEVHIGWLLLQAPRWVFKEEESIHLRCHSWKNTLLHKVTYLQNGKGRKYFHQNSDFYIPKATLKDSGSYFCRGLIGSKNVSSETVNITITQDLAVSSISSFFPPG

B1: M103205H795-MY011/M103202L889-SK1 (antibody, human IgG1, kappa, name in EU numbering)
heavy: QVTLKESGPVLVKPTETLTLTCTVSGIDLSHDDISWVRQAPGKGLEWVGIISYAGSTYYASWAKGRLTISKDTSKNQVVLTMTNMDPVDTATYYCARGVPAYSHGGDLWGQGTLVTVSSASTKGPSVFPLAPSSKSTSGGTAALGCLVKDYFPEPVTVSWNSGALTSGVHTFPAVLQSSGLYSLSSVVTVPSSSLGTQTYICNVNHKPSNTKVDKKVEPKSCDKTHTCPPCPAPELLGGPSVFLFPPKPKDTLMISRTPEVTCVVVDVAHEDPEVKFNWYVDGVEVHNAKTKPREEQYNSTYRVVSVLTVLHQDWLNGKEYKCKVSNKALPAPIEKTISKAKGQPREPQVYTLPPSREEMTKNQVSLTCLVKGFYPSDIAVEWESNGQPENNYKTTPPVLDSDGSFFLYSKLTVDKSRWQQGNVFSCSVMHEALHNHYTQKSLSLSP
light: DIVMTQSPATLSLSPGERATLSCTSSQSVYHANWLSWFQQKPGQPPKLLIYWASTLAYGVPSRFSGSGSGTDFTLTISSLQPEDAATYYCAGGYGGGRYAFGQGTKVEIKRTVAAPSVFIFPPSDEQLKSGTASVVCLLNNFYPREAKVQWKVDNALQSGNSQESVTEQDSKDSTYSLSSTLTLSKADYEKHKVYACEVTHQGLSSPVTKSFNRGEC
notes: Substitution introduced into M103205H795-SG1; EU numbering
With B1 the “KD fold (SG1 = 1)” value [1] was 1.6 fold and the Kd [2] was 2300 nM.

B2: M103205H795-MY141/M103202L889-SK1 (antibody, human IgG1, kappa, name in EU numbering)
heavy: QVTLKESGPVLVKPTETLTLTCTVSGIDLSHDDISWVRQAPGKGLEWVGIISYAGSTYYASWAKGRLTISKDTSKNQVVLTMTNMDPVDTATYYCARGVPAYSHGGDLWGQGTLVTVSSASTKGPSVFPLAPSSKSTSGGTAALGCLVKDYFPEPVTVSWNSGALTSGVHTFPAVLQSSGLYSLSSVVTVPSSSLGTQTYICNVNHKPSNTKVDKKVEPKSCDKTHTCPPCPAPELLNGPSVFLFPPKPKDTLMISRTPEVTCVVVDVAHEDPEVKFNWYVDGVEVHNAKTKPREEQYNSTYRVVSVLTVLHQDWLNGKEYKCKVSNKALPAPIEKTISKAKGQPREPQVYTLPPSREEMTKNQVSLTCLVKGFYPSDIAVEWESNGQPENNYKTTPMVLDSDGSFFLYSKLTVDKSRWQQGNVFSCSVMHEALHNHYTQKSLSLSP
light: DIVMTQSPATLSLSPGERATLSCTSSQSVYHANWLSWFQQKPGQPPKLLIYWASTLAYGVPSRFSGSGSGTDFTLTISSLQPEDAATYYCAGGYGGGRYAFGQGTKVEIKRTVAAPSVFIFPPSDEQLKSGTASVVCLLNNFYPREAKVQWKVDNALQSGNSQESVTEQDSKDSTYSLSSTLTLSKADYEKHKVYACEVTHQGLSSPVTKSFNRGEC
notes: Fc variant of MS1032LO06-SG1; positions in EU numbering
For B2, the “KD fold (SG1 = 1)” value [3] was 0.5 fold, the “KD fold (SG1 = 1)” value [4] was 0.08 fold and the “KD fold (SG1 = 1)” value [5] was 0.6 fold. The Kd [6] was 2200 nM, the Kd [7] was 4700 nM and the Kd [8] was 1300 nM.

B3: M103205H795-MY061/M103202L889-SK1 (antibody, human IgG1, kappa, name in EU numbering)
heavy: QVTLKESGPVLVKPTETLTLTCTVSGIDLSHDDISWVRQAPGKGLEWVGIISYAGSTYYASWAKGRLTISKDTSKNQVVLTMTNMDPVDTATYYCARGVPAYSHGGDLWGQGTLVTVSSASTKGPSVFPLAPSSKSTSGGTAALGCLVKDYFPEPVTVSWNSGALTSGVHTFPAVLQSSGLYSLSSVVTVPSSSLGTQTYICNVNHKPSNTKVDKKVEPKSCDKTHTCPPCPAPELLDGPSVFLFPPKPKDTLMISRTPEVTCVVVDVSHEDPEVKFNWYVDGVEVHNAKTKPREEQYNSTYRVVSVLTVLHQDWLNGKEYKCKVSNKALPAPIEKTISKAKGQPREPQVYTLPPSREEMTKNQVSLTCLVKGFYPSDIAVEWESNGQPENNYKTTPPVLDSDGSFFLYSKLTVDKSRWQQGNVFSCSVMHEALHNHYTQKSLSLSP
light: DIVMTQSPATLSLSPGERATLSCTSSQSVYHANWLSWFQQKPGQPPKLLIYWASTLAYGVPSRFSGSGSGTDFTLTISSLQPEDAATYYCAGGYGGGRYAFGQGTKVEIKRTVAAPSVFIFPPSDEQLKSGTASVVCLLNNFYPREAKVQWKVDNALQSGNSQESVTEQDSKDSTYSLSSTLTLSKADYEKHKVYACEVTHQGLSSPVTKSFNRGEC
notes: as for B1
With B3 the “KD fold (SG1 = 1)” value [9] was 0.4 fold, the “KD fold (SG1 = 1)” value [10] was 0.8 fold and the Kd [11] was 6800 nM.

B4: M103205H795-MY070/M103202L889-SK1 (antibody, human IgG1, kappa, name in EU numbering)
heavy: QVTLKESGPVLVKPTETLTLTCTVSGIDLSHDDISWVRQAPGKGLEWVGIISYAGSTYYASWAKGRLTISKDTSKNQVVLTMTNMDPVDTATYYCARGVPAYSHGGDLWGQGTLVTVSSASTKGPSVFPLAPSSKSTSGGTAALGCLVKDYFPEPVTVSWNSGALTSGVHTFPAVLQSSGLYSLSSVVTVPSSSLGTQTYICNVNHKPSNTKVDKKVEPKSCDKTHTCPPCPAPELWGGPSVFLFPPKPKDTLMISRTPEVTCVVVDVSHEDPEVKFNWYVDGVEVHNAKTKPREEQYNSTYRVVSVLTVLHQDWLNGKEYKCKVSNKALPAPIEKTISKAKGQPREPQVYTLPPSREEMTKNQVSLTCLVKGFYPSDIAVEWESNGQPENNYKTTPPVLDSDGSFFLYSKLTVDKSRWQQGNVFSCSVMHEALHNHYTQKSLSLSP
light: DIVMTQSPATLSLSPGERATLSCTSSQSVYHANWLSWFQQKPGQPPKLLIYWASTLAYGVPSRFSGSGSGTDFTLTISSLQPEDAATYYCAGGYGGGRYAFGQGTKVEIKRTVAAPSVFIFPPSDEQLKSGTASVVCLLNNFYPREAKVQWKVDNALQSGNSQESVTEQDSKDSTYSLSSTLTLSKADYEKHKVYACEVTHQGLSSPVTKSFNRGEC
notes: as for B1
With B4 the “KD fold (SG1 = 1)” value [12] was 1 fold and the Kd [11] was 2800 nM.

B5: M103205H795-MY040/M103202L889-SK1 (antibody, human IgG1, kappa, name in EU numbering)
heavy: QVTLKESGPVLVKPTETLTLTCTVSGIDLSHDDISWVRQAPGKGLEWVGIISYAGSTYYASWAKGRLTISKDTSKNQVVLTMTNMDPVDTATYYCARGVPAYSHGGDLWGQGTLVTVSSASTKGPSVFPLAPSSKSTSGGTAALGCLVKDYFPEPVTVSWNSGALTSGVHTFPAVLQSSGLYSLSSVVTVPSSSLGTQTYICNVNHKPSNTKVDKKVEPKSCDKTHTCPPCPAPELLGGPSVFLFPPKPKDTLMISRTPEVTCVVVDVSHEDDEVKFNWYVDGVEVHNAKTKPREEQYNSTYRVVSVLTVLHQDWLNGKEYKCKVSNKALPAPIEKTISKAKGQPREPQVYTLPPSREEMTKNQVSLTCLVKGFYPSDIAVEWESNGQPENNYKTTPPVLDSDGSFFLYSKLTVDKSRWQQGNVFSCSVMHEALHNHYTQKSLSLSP
light: DIVMTQSPATLSLSPGERATLSCTSSQSVYHANWLSWFQQKPGQPPKLLIYWASTLAYGVPSRFSGSGSGTDFTLTISSLQPEDAATYYCAGGYGGGRYAFGQGTKVEIKRTVAAPSVFIFPPSDEQLKSGTASVVCLLNNFYPREAKVQWKVDNALQSGNSQESVTEQDSKDSTYSLSSTLTLSKADYEKHKVYACEVTHQGLSSPVTKSFNRGEC
notes: as for B1
For B5, the “KD fold (SG1 = 1)” value [13] was 3.9 fold, the “KD fold (SG1 = 1)” value [10] was 0.9 fold and the Kd [2] was 5500 nM.

B6: M103205H795-MY073/M103202L889-SK1 (antibody, human IgG1, kappa, name in EU numbering)
heavy: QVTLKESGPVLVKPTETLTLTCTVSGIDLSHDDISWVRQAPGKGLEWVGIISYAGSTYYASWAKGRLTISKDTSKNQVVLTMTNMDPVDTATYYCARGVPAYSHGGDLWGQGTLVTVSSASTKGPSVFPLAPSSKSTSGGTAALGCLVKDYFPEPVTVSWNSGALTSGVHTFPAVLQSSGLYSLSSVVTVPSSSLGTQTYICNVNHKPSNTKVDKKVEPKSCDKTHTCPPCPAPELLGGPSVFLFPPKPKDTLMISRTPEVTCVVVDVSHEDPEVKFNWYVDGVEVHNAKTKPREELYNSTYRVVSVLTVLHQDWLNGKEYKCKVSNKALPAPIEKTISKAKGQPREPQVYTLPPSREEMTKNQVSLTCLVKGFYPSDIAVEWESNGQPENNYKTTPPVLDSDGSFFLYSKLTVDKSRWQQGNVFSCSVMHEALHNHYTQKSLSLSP
light: DIVMTQSPATLSLSPGERATLSCTSSQSVYHANWLSWFQQKPGQPPKLLIYWASTLAYGVPSRFSGSGSGTDFTLTISSLQPEDAATYYCAGGYGGGRYAFGQGTKVEIKRTVAAPSVFIFPPSDEQLKSGTASVVCLLNNFYPREAKVQWKVDNALQSGNSQESVTEQDSKDSTYSLSSTLTLSKADYEKHKVYACEVTHQGLSSPVTKSFNRGEC
notes: as for B1
B6 was tested, and the “KD fold (SG1 = 1)” value [1] was 3.9 fold.

B7: M103205H795-MY052/M103202L889-SK1 (antibody, human IgG1, kappa, name in EU numbering)
heavy: QVTLKESGPVLVKPTETLTLTCTVSGIDLSHDDISWVRQAPGKGLEWVGIISYAGSTYYASWAKGRLTISKDTSKNQVVLTMTNMDPVDTATYYCARGVPAYSHGGDLWGQGTLVTVSSASTKGPSVFPLAPSSKSTSGGTAALGCLVKDYFPEPVTVSWNSGALTSGVHTFPAVLQSSGLYSLSSVVTVPSSSLGTQTYICNVNHKPSNTKVDKKVEPKSCDKTHTCPPCPAPELLNGPSVFLFPPKPKDTLMISRTPEVTCVVVDVSEEDPEVKFNWYVDGVEVHNAKTKPREEQYNSTYRVVSVLTVLHQDWLNGKEYKCKVSNKALPAPIEKTISKAKGQPREPQVYTLPPSREEMTKNQVSLTCLVKGFYPSDIAVEWESNGQPENNYKTTPMVLDSDGSFFLYSKLTVDKSRWQQGNVFSCSVMHEALHNHYTQKSLSLSP
light: DIVMTQSPATLSLSPGERATLSCTSSQSVYHANWLSWFQQKPGQPPKLLIYWASTLAYGVPSRFSGSGSGTDFTLTISSLQPEDAATYYCAGGYGGGRYAFGQGTKVEIKRTVAAPSVFIFPPSDEQLKSGTASVVCLLNNFYPREAKVQWKVDNALQSGNSQESVTEQDSKDSTYSLSSTLTLSKADYEKHKVYACEVTHQGLSSPVTKSFNRGEC
notes: as for B2
For B7, the “KD fold (SG1 = 1)” value [14] was 2.5 fold, the “KD fold (SG1 = 1)” value [4] was 0.24 fold and the Kd [7] was 1500 nM.

B8: M103205H795-MY048/M103202L889-SK1 (antibody, human IgG1, kappa, name in EU numbering)
heavy: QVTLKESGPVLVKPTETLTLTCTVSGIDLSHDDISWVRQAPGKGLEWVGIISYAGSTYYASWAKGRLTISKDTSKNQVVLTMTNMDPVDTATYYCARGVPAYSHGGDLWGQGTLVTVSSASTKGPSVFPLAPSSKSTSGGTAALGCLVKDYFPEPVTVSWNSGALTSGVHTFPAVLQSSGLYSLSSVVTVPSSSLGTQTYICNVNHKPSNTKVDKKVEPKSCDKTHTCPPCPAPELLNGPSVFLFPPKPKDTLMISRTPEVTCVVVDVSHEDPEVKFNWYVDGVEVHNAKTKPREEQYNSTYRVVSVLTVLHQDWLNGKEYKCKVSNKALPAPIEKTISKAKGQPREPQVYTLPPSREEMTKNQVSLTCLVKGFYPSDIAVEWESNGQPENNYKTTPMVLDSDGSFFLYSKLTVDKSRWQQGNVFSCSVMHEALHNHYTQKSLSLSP
light: DIVMTQSPATLSLSPGERATLSCTSSQSVYHANWLSWFQQKPGQPPKLLIYWASTLAYGVPSRFSGSGSGTDFTLTISSLQPEDAATYYCAGGYGGGRYAFGQGTKVEIKRTVAAPSVFIFPPSDEQLKSGTASVVCLLNNFYPREAKVQWKVDNALQSGNSQESVTEQDSKDSTYSLSSTLTLSKADYEKHKVYACEVTHQGLSSPVTKSFNRGEC
notes: as for B2
B8 was tested, and the “KD fold (SG1 = 1)” value [14] was 2.5 fold, the “KD fold (SG1 = 1)” value [4] was 0.07 fold and the Kd [6] was 1400 nM. The Kd [15] was 7000 nM and the Kd [7] was 5400 nM.

B9: M103205H795-MY013/M103202L889-SK1 (antibody, human IgG1, kappa, name in EU numbering)
heavy: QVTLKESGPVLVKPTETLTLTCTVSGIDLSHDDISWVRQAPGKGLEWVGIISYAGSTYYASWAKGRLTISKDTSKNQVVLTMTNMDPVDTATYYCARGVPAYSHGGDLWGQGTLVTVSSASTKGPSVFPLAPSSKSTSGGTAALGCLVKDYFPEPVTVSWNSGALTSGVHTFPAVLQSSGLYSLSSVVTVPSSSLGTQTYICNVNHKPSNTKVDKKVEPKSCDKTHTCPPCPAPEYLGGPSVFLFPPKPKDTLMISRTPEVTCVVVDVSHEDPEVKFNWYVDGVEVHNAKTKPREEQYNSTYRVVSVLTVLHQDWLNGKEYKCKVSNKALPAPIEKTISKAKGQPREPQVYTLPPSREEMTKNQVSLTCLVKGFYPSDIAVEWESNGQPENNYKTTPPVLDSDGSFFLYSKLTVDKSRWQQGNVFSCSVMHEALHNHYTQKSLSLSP
light: DIVMTQSPATLSLSPGERATLSCTSSQSVYHANWLSWFQQKPGQPPKLLIYWASTLAYGVPSRFSGSGSGTDFTLTISSLQPEDAATYYCAGGYGGGRYAFGQGTKVEIKRTVAAPSVFIFPPSDEQLKSGTASVVCLLNNFYPREAKVQWKVDNALQSGNSQESVTEQDSKDSTYSLSSTLTLSKADYEKHKVYACEVTHQGLSSPVTKSFNRGEC
notes: as for B1
With B9 the “KD fold (SG1 = 1)” value [9] was 0.5 fold.

Reference: patent publication US20250076311A1 (Chugai, published 2025)
